From PMC3364985, “Staphylococcus aureus Surface Protein SdrE Binds Complement Regulator Factor H as an Immune Evasion Tactic” (PLoS ONE, 2012)

B1: complement regulatory protein factor H (natural protein)
chain: EDCNELPPRRNTEILTGSWSDQTYPEGTQAIYKCRPGYRSLGNVIMVCRKGEWVALNPLRKCQKRPCGHPGDTPFGTFTLTGGNVFEYGVKAVYTCNEGYQLLGEINYRECDTDGWTNDIPICEVVKCLPVTAPENGKIVSSAMEPDREYHFGQAVRFVCNSGYKIEGDEEMHCSDDGFWSKEKPKCVEISCKSPDVINGSPISQKIIYKENERFQYKCNMGYEYSERGDAVCTESGWRPLPSCEEKSCDNPYIPNGDYSPLRIKHRTGDEITYQCRNGFYPATRGNTAKCTSTGWIPAPRCTLKPCDYPDIKHGGLYHENMRRPYFPVAVGKYYSYYCDEHFETPSGSYWDHIHCTQDGWSPAVPCLRKCYFPYLENGYNQNYGRKFVQGKSIDVACHPGYALPKAQTTVTCMENGWSPTPRCIRVKTCSKSSIDIENGFISESQYTYALKEKAKYQCKLGYVTADGETSGSITCGKDGWSAQPTCIKSCDIPVFMNARTKNDFTWFKLNDTLDYECHDGYESNTGSTTGSIVCGYNGWSDLPICYERECELPKIDVHLVPDRKKDQYKVGEVLKFSCKPGFTIVGPNSVQCYHFGLSPDLPICKEQVQSCGPPPELLNGNVKEKTKEEYGHSEVVEYYCNPRFLMKGPNKIQCVDGEWTTLPVCIVEESTCGDIPELEHGWAQLSSPPYYYGDSVEFNCSESFTMIGHRSITCIHGVWTQLPQCVAIDKLKKCKSSNLIILEEHLKNKKEFDHNSNIRYRCRGKEGWIHTVCINGRWDPEVNCSMAQIQLCPPPPQIPNSHNMTTTLNYRDGEKVSVLCQENYLIQEGEEITCKDGRWQSIPLCVEKIPCSQPPQIEHGTINSSRSSQESYAHGTKLSYTCEGGFRISEENETTCYMGKWSSPPQCEGLPCKSPPEISHGVVAHMSDSYQYGEEVTYKCFEGFGIDGPAIAKCLGEKWSHPPSCIKTDCLSLPSFENAIPMGEKKDVYKAGEQVTYTCATYYKMDGASNVTCINSRWTGRPTCRDTSCVNPPTVQNAYIVSRQMSKYPSGERVRYQCRSPYEMFGDEEVMCLNGNWTEPPQCKDSTGKCGPPPPIDNGDITSFPLSVYAPASSVEYQCQNLYQLEGNKRITCRNGQWSEPPKCLHPCVISREIMENYNIALRWTAKQKLYSRTGESVEFVCKRGYRLSSRSHTLRTTCWDGKLEYPTCAKR
notes: complement factor H, human, 155 kDa plasma protein; the assay's purified field tells the two apart; also called fH; purified fH; source: bought: CompTech (purified fH)

What was measured:
[1] = molecular target: recombinant SdrE (6×His-tagged A region of serine-aspartate repeat-containing protein E) (S. aureus); test: far-Western, overlay or dot blot; 5 µg of rSdrE, rClfA and BSA adsorbed to a PVDF membrane, blocked with 3% BSA/TBST, overlaid with purified fH (20 µg fH/10 ml block buffer) overnight; anti-fH, ECL, optical densitometry against a purified fH dilution series
recombinant SdrE (6×His-tagged A region of serine-aspartate repeat-containing protein E) (S. aureus), sequence (O86489 53-606 limits assumed): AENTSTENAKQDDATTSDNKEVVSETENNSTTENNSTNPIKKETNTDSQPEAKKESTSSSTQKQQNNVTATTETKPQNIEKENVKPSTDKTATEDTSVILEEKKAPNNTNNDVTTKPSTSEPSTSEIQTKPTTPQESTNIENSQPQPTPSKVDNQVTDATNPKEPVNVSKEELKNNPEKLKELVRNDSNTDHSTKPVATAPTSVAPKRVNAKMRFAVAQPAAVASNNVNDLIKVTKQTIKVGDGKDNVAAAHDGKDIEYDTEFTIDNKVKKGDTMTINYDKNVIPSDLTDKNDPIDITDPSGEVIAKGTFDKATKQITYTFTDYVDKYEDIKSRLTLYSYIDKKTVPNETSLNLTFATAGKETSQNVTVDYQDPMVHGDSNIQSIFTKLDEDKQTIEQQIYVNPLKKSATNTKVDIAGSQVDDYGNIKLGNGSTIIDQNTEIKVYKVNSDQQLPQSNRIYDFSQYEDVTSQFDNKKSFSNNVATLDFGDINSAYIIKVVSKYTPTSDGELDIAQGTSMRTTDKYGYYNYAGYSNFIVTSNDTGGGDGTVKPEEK

[2] = molecular target: T1, SdrE expressed on the surface of Lactococcus lactis (pKS80-SdrE) (S. aureus, UniProt O86489 53-1132); test: binding to whole bacteria in solution, SDS extraction, fH ELISA; L. lactis (OD600 = 4.0) in GVBS^++ with various amounts of HI-serum, 1 hr, 37°C; bound proteins extracted with 2% SDS; fH ELISA with chicken antibodies specific for human fH; conditions: partners not purified
T1 construct: Compared throughout with L. lactis carrying the empty vector pKS80; also called L. lactis (pKS80-SdrE); SdrE-expressing L. lactis; source: L. lactis, constitutively expressed from pKS80, on the bacterial surface
T1 sequence (O86489 53-1132): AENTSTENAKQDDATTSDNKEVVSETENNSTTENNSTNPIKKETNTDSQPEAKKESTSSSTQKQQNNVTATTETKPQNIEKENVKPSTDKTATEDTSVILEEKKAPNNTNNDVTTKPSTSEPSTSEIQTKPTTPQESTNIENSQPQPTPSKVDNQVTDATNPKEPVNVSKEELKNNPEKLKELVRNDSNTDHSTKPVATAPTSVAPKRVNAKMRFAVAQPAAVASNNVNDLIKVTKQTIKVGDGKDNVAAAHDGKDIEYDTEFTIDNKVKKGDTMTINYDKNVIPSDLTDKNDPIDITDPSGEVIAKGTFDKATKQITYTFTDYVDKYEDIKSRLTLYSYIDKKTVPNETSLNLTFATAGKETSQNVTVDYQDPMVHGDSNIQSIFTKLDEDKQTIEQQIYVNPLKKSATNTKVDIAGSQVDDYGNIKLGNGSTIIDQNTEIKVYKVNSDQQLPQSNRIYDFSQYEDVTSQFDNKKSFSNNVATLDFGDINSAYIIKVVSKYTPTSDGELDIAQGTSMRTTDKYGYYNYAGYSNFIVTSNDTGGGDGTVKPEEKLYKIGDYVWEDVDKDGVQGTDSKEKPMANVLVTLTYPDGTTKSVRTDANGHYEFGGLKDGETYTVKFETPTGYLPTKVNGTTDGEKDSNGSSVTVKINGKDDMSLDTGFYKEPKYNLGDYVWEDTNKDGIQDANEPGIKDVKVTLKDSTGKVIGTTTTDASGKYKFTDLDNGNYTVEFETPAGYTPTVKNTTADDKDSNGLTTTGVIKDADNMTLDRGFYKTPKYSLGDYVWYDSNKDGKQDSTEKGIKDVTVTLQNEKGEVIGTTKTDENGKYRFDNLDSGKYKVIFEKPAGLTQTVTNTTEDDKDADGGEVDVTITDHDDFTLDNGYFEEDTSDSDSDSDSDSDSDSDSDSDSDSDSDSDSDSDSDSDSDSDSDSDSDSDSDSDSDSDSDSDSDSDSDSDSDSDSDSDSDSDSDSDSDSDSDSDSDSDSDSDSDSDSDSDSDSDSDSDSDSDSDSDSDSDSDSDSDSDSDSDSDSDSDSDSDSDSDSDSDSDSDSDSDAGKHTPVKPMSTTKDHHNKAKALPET

[3] = molecular target: T1, SdrE expressed on the surface of …; test: far-Western, overlay or dot blot; whole L. lactis (pKS80-SdrE or pKS80) immobilised on a PVDF membrane, overlaid with 5% HI-serum in 0.05% gelatin/PBST for 1 hr; anti-fH, optical densitometry against a serum dilution series; conditions: partners not purified

Molecule	amount of fH bound [1] [ng]	fold more serum fH bound than on L. lactis (pKS80) [2] [fold]	fold more serum fH bound than on L. lactis (pKS80) [3] [fold]
complement regulatory protein factor H (from UniProt P08603 19-1231) (natural protein)	2.2		
B1		≤ 4	4
